{"source": "paper PMC2821923", "about": "“Visualizing Interactions along the Escherichia coli Twin-Arginine Translocation Pathway Using Protein Fragment Complementation” (PLoS ONE, 2010)", "key": {"[1]": {"target": "DmsA-Y1 (entire DmsA enzyme fused to the N-terminal YFP fragment) (E. coli) (UniProt P18775)", "assay": "split reporter (BiFC, NanoBiT); split YFP (Y1 1-154, Y2 155-238) BiFC in living E. coli TG1 cells (wt; also ΔtatE, ΔtatB, ΔtatC, ΔtatAE, ΔtatABCE); 1 mM IPTG, 8 h at room temperature; median cell fluorescence by flow cytometry, normalised to ssDmsA-Y1/DmsD-Y2, and fluorescence microscopy; substrate or signal peptide with …"}, "[2]": {"target": "ssDmsA-Y1 (DmsA signal peptide fused to the N-terminal YFP fragment) (E. coli)", "assay": "split reporter (BiFC, NanoBiT); split YFP (Y1 1-154, Y2 155-238) BiFC in living E. coli TG1 cells (wt; also ΔtatE, ΔtatB, ΔtatC, ΔtatAE, ΔtatABCE); 1 mM IPTG, 8 h at room temperature; median cell fluorescence by flow cytometry, normalised to ssDmsA-Y1/DmsD-Y2, and fluorescence microscopy; substrate or signal peptide with …"}, "[3]": {"target": "TatB fused to a YFP fragment (TatB-Y1; TatB-Y2) (E. coli) (UniProt P69425)", "assay": "split reporter (BiFC, NanoBiT); split YFP BiFC in living TG1 ΔtatABCE cells (TatA also in ΔtatAE, TatB/TatC also in ΔtatB and ΔtatC); median fluorescence by flow cytometry against unfused Y1 or Y2 controls, fluorescence microscopy"}, "[4]": {"target": "TatC fused to a YFP fragment (TatC-Y1; TatC-Y2) (E. coli) (UniProt P69423)", "assay": "split reporter (BiFC, NanoBiT); split YFP BiFC in living TG1 ΔtatABCE cells (TatA also in ΔtatAE, TatB/TatC also in ΔtatB and ΔtatC); median fluorescence by flow cytometry against unfused Y1 or Y2 controls, fluorescence microscopy"}, "[5]": {"target": "TatC(E103R) fused to a YFP fragment (E103R-Y1; E103R-Y2) (E. coli) (UniProt P69423)", "assay": "split reporter (BiFC, NanoBiT); split YFP BiFC in living TG1 ΔtatABCE cells (TatA also in ΔtatAE, TatB/TatC also in ΔtatB and ΔtatC); median fluorescence by flow cytometry against unfused Y1 or Y2 controls, fluorescence microscopy"}, "[6]": {"target": "TatC(P48A) fused to a YFP fragment (P48A-Y1; P48A-Y2) (E. coli) (UniProt P69423)", "assay": "split reporter (BiFC, NanoBiT); split YFP BiFC in living TG1 ΔtatABCE cells (TatA also in ΔtatAE, TatB/TatC also in ΔtatB and ΔtatC); median fluorescence by flow cytometry against unfused Y1 or Y2 controls, fluorescence microscopy"}, "[7]": {"target": "the molecule itself", "assay": "split reporter (BiFC, NanoBiT); split YFP BiFC in living TG1 ΔtatABCE cells (TatA also in ΔtatAE, TatB/TatC also in ΔtatB and ΔtatC); median fluorescence by flow cytometry against unfused Y1 or Y2 controls, fluorescence microscopy"}}, "data": [{"molecule": "DmsD fused to a YFP fragment (DmsD-Y2; DmsD-Y1) (from UniProt P69853 1-204) (natural protein)", "values": [{"measurement": "BiFC signal relative to the ssDmsA-Y1/DmsD-Y2 pair", "setting": "[1]", "result": 50, "unit": "%"}, {"measurement": "DmsA binding activity", "setting": "[1]; scale: relative", "result": 0.62}, {"measurement": "BiFC fluorescence, fold over background (unfused Y1 with DmsD-Y2)", "setting": "[2]", "result": 5, "unit": "fold"}, {"measurement": "median fluorescence (M)", "setting": "[2]", "result": 2250}, {"measurement": "ssDmsA binding activity", "setting": "[2]; scale: relative", "result": 1}]}, {"molecule": "ssDmsA(KK)-Y1 (domain or fragment)", "values": [{"measurement": "BiFC signal, fold above background", "setting": "[3]", "result": 5.4, "unit": "fold"}, {"measurement": "BiFC signal, fold above background", "setting": "[4]", "result": 10.7, "unit": "fold"}]}, {"molecule": "ssDmsA-Y1 (DmsA signal peptide fused to the N-terminal YFP fragment) (domain or fragment)", "values": [{"measurement": "BiFC signal, fold above background", "setting": "[3]", "result": 3.5, "unit": "fold"}, {"measurement": "BiFC signal, fold above background", "setting": "[4]", "result": 7, "unit": "fold"}, {"measurement": "BiFC signal, fold less than with wt TatC", "setting": "[5]", "result": 2, "unit": "fold"}, {"measurement": "BiFC signal, fold less than with wt TatC", "setting": "[6]", "result": 2, "unit": "fold"}]}, {"molecule": "TatA(F39A) fused to a YFP fragment (F39A-Y1; F39A-Y2) (natural protein, E. coli, UniProt P69428 1-89, looked up, TatA, E. coli, full length, with F39A in the predicted amphipathic region; also called TatA(F39A)-Y1; TatA(F39)-Y2; source: E. coli TG1 ΔtatABCE (also TG1 ΔtatAE), co-expressed from plasmids pF39A-Y1 and pF39A-Y2, in living cells) MGGISIWQLLIIAVIVVLLFGTKKLGSIGSDLGASIKGAKKAMSDDEPKQDKTSQDADFTAKTIADKQADTNQEQAKTEDAKRHDKEQV", "values": [{"measurement": "BiFC signal relative to the wt TatA homo-oligomers", "setting": "[7]", "result": "~2", "unit": "fold"}]}]}
